Legend:
[1] = target: T1, monkey 4-1BB on CHOK1 cells (monkey); assay: FACS, CHOK1-c4-1BB cells; Ab 0.00013 ug/ml
T1 construct: whole, on cells; also called CHOK1-c4-1BB
Source text: (§1) The pIRES plasmid carrying the full-length gene of monkey-derived […] (the preparation method is the same as the preparation method of the pCpC vector carrying the human-derived IgG Fc fragment (hFc) in “Preparation of immunogen A” of the step (1) in Example 1, in which the database accession number of the amino acid sequence of the extracellular region of monkey 4-1BB protein (Phe19-Thr239) is G7PSE7) was transfected into CHOK1 cell line to obtain CHOK1 stable transfected cell line containing monkey 4-1BB (herein referred to as CHOK1-c4-1BB stable cell line). The CHOK1-h4-1BB stable cell line and the CHOK1-c4-1BB stable cell line were expanded and cultivated to 90% confluence in T-75 cell culture flasks. The medium was exhausted, and washed twice with HBSS buffer (Hanks Balanced Salt Solution, purchased from Invitrogen), and then the cells were treated and collected with enzyme-free cell dissociation solution (Versene solution, purchased from Life Technology). The cells were washed twice with HBSS buffer, and after cell counting, the cells were diluted with HBSS buffer to 2×10⁶ cells per ml, and 1% goat serum blocking solution was added, the percentage being the mass percentage. It was incubated on ice for 30 minutes, and then washed twice with HBSS buffer by centrifugation. The collected cells were suspended in FACS buffer (HBSS containing 1% BSA, the percentage was the mass percentage) to 2×10⁶ cells/mL, and 100 μl per well was added to a 96-well FACS reaction plate. The purified 4-1BB antibody test sample obtained in Example 2 was added, 100 microliters per well and incubated on ice for 2 hours. […] It was washed three times with FACS buffer by centrifugation, and 100 μl of fixative [4% (v/v) paraformaldehyde] per well was added to suspend cells, and washed twice with FACS buffer after 10 minutes by centrifugation. The cells were suspended with 100 microliters of FACS buffer, and the results were detected and analyzed with FACS (FACS Calibur, purchased from BD).

[2] = target: T2, hFc-tagged human 4-1BB extracellular domain protein (4-1BB-hFc) (human, UniProt Q07011 24-186, limits assumed); assay: ELISA, coated human 4-1BB-hFc; Ab 0.0001 ug/ml
T2 construct: also called immunogen A; 4-1BB^ECD-hFc; not shown: human IgG Fc fragment (hFc) of the pCpC vector
Procedure: (§2) The purified immunogen A (4-1BB-hFc), monkey 4-1BB-his, and mouse 4-1BB-his obtained in Example 1 [for the preparation method, see step 1 of Example 1, preparation of immunogen A], of which the extracellular domain of monkey-derived 4-1BB protein (purchased from ACRO biosystems), the extracellular domain of mouse 4-1BB protein (purchased from sino biological) or other immune detection point proteins respectively were diluted with PBS to a final concentration of 1.0 μg/mL, then added with […] per well to 96-well ELISA plate. It was sealed with plastic film and incubated at 4° C. overnight. The next day, the plate was washed twice with the plate-washing solution [PBS containing 0.01% (v/v) Tween20] and blocking solution [PBS containing 0.01% (v/v) Tween 20 and 1% (v/v) BSA] was added and blocked at room temperature for 2 hours. The blocking solution was discarded and 100 μl of the purified 4-1BB antibody obtained in Example 2 was added per well. After incubated at 37° C. for 2 hours, the plate was washed 3 times with a plate-washing solution [PBS containing 0.01% (v/v) Tween20]. A secondary antibody (purchased from Sigma) labeled with HRP (horseradish peroxidase) was added, and after incubated at 37° C. for 2 hours, the plate was washed 3 times with a plate-washing solution [PBS containing 0.01% (v/v) Tween20]. 100 μl of TMB substrate was added per well. After incubated for 30 minutes at room temperature, 100 μl of stop buffer (1.0N HCl) was added per well. The A450 nm values were read using an ELISA plate reader (SpectraMax 384plus, Molecular Device).

[3] = target: T1, monkey 4-1BB on CHOK1 cells; assay: FACS, CHOK1-c4-1BB cells; Ab 0.016 ug/ml
Source text: as §1

[4] = target: T1, monkey 4-1BB on CHOK1 cells; assay: FACS, CHOK1-c4-1BB cells; Ab 10 ug/ml
Source text: as §1

[5] = target: T3, human 4-1BB, full length, on transfected cells (human, UniProt Q07011 24-255); assay: FACS, CHOK1-h4-1BB cells; Ab 0.016 ug/ml
T3 construct: whole, on cells; also called CHOK1-h4-1BB
Source text: as §1

[6] = target: T2, hFc-tagged human 4-1BB extracellular …; assay: ELISA, coated human 4-1BB-hFc; Ab 0.4 ug/ml
Procedure: as §2

[7] = target: T2, hFc-tagged human 4-1BB extracellular …; assay: ELISA, coated human 4-1BB-hFc; Ab 0.0006 ug/ml
Procedure: as §2

[8] = target: T1, monkey 4-1BB on CHOK1 cells; assay: FACS, CHOK1-c4-1BB cells; Ab 0.0032 ug/ml
Source text: as §1

[9] = target: T1, monkey 4-1BB on CHOK1 cells; assay: FACS, CHOK1-c4-1BB cells; Ab 0.00064 ug/ml
Source text: as §1

[10] = target: T3, human 4-1BB, full length, on …; assay: FACS on CHOK1-h4-1BB cells, Alexa 488 secondary antibody, average fluorescence intensity
Source text: as §1

[11] = target: T3, human 4-1BB, full length, on …; assay: FACS, CHOK1-h4-1BB cells; Ab 0.00064 ug/ml
Source text: as §1

[12] = target: T2, hFc-tagged human 4-1BB extracellular …; assay: ELISA, coated human 4-1BB-hFc; Ab 2 ug/ml
Procedure: as §2

[13] = target: T3, human 4-1BB, full length, on …; assay: FACS, CHOK1-h4-1BB cells; Ab 0.0032 ug/ml
Source text: as §1

[14] = target: T1, monkey 4-1BB on CHOK1 cells; assay: FACS, CHOK1-c4-1BB cells; Ab 2 ug/ml
Source text: as §1

T3 sequence (Q07011 24-255): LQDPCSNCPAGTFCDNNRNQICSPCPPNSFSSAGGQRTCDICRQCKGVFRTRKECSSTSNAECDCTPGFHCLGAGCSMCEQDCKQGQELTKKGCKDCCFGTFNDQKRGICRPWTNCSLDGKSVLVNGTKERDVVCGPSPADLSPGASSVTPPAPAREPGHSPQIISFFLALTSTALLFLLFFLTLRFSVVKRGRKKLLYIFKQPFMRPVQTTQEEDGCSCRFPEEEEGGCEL

Binder | average fluorescence intensity [1] [MFI] | OD450 nm [2] [OD450 nm] | average fluorescence intensity [3] [MFI] | average fluorescence intensity [4] [MFI] | average fluorescence intensity [5] [MFI] | OD450 nm [6] [OD450 nm] | OD450 nm [7] [OD450 nm] | average fluorescence intensity [8] [MFI] | average fluorescence intensity [9] [MFI] | EC50 (read off the curve) [10] [µg/mL] | average fluorescence intensity [11] [MFI] | OD450 nm [12] [OD450 nm] | average fluorescence intensity [13] [MFI] | average fluorescence intensity [14] [MFI]
170D7F2 (antibody, V domains shown) VH: QVQLVQSGAEVKKPGASVKVSCKASGYTFTSYDINWVRQATGQGLEWMGWMNPNSGNTGYAQKFQGRVTMTRNTSISTAYMELSSLRSEDTAVYYCARETGPFDYWGQGTLVTVSS VL: DIQMTQSPSSLSASVGDRVTITCRASQRINNYLNWYQQKPGKAPKLLIYGASSLQSGVPSRFSGSGSGTDFTLTISSLQPEDFATYYCQQSYSTPFTFGPGTKVDIK | 2.6 | 0.13 | 25.9 | 700 | 48.8 | 3.5 | 0.19 | 8.5 | 4 | ~0.2 | 4.9 | 3.49 | 14 | 621
172E3E3 (antibody, V domains shown) VH: QVQLQESGPGLVKPSGTLSLTCAVSGGSISSSNWWSWVRQPPGKGLEWIGEIYHSGSTNYNPSLKSRVTISVDKSKNQLSLNLSSVTAADTAVYYCARQGGVAGTLYWYFDLWGRGTLVTVSS VL: DIVMTQSPLSLPVTPGEPASISCRSSQGLLHSNGYNYLDWYLQKPGQSPQLLIYLGSNRASGVPDRFIGSGSGTDFTLKIRRVEAEDVGVYYCMQVLQTPWTFGQGTKVEIK | 17.6 | 0.14 | 16.7 | 342 | 46.9 | 3.44 | 0.2 | 6.6 | 71.7 | ~0.1 | 49.5 | 3.44 | 13 | 305
258F5A8 (antibody, V domains shown) VH: QVQLVESGGGVVQPGRSLRLSCAASGFTFSSYGMHWVRQAPGKGLEWVAVIWYDGSNKYYADSVKGRFNISRDNSKNTLYLQMNSLRAEDTAVYYCARGPYLYSSGWYDYYYYGMDVWGQGTTVTVSS VL: not shown | 2.5 | 0.06 | 9.9 | 131 | 68 | 2.69 | 0.09 | 4.5 | 3 | ~0.2 | 7 | 2.67 | 21.1 | 112
11H10C9 (antibody, V domains shown) VH: QVQLVESGGGVVQPGRSLRLSCAASGFTFSSYAMHWVRQAPGKGLEWVAIIWYDGSNQYYADSVKGRFTISRDNSMNTLYLQMNSLRAEDTAVYYCARVEQWLVSYFDFWGQGTLVTVSS VL: EIVMTQSPATLSVSPGERATLSCRASQSVSSNLAWYQQKPGQVPRLLIYGASTRATGIPARFSGSGSGTEFTLTISSLQSEDFAVYYCQQYNNWPTFGGGTKVEIK | 3 | 0.15 | 24.7 | 736 | 58.7 | 3.58 | 0.19 | 10.4 | 3.7 | ~0.1 | 6.4 | 3.59 | 18.3 | 576

Second part, the binder after the results:

average fluorescence intensity [1] [MFI] | OD450 nm [2] [OD450 nm] | average fluorescence intensity [3] [MFI] | average fluorescence intensity [4] [MFI] | average fluorescence intensity [5] [MFI] | OD450 nm [6] [OD450 nm] | OD450 nm [7] [OD450 nm] | average fluorescence intensity [8] [MFI] | average fluorescence intensity [9] [MFI] | EC50 (read off the curve) [10] [µg/mL] | average fluorescence intensity [11] [MFI] | OD450 nm [12] [OD450 nm] | average fluorescence intensity [13] [MFI] | average fluorescence intensity [14] [MFI] | Binder
2.7 | 0.13 | 33.2 | 746 | 52.7 | 3.56 | 0.18 | 10.4 | 4.4 | ~0.2 | 5 | 3.54 | 14.8 | 712 | 182A5B3 (antibody, V domains shown) VH: QVQLVQSGAEVKKPGASVKVSCKASGYTFTSYDINWVRQATGQGLEWMGWMNPNSGNTGYVQKFQGRVTMTRNTSISTAYMELSSLRSEDTAVYYCARETGPFDYWGQGTLVTVSS VL: not shown
2.5 | 0.07 | 9.3 | 126 | 67.2 | 2.79 | 0.11 | 4.3 | 2.9 | ~0.2 | 7.1 | 2.8 | 19.4 | 107 | 259G10E11 (antibody, V domains shown) VH: QVQLVESGGGVVQPGRSLRLSCAASGFTFSSYGMHWVRQAPGKGLEWVAVIWYDGSNKYYADSVKGRFTISRDNSKNTLYLQMNSLRAEDTAVYYCARGPYLYSSGWYDYYYYGMDVWGQGTTVTVSS VL: not shown
2.4 | 0.07 | 8 | 124 | 85.6 | 2.75 | 0.1 | 3.8 | 2.8 | ~0.3 | 8 | 2.74 | 22.9 | 93.5 | 263A11E3 (antibody, V domains shown) VH: QVQLQESGPGLVKPSETLSLTCAVSGYSISSGYYWGWIRQPPGKGLEWIGSIYHSGSTSYNPSLRSRVTISVDTSKNQFSLKLSSVTAADTAVYYCARDAGGFDYWGQGTLVTVSS VL: not shown

From US20200347144A1 (SHANGHAI HYAMAB BIOTECH, published 2020)
